Data as given in patent US5470740.

Tested on: NsiI restriction endonuclease (Neisseria sicca BRL 397)
Test: cleavage_in_vitro
Conditions: crude sonicated extract, REact 3 buffer, 37 C, 1 h; each of pUC123 and pUC140

lambda DNA gave an activity (units/g cells) of over 26000.
